Residue numbers refer to the chain shown, from its start.
T1: IL-4R (Sino Biological) (UniProt P24394 26-232)
T1 construct: also called IL-4Ra
T1 sequence (looked up): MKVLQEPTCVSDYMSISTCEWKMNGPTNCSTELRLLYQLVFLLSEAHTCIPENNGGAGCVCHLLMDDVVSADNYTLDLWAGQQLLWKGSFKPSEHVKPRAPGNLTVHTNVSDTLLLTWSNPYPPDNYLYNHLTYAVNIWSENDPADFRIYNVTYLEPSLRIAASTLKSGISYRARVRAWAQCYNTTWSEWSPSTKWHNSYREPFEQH

T2: IL-7R (Sino Biological) (UniProt P16871 21-239)
T2 sequence (looked up): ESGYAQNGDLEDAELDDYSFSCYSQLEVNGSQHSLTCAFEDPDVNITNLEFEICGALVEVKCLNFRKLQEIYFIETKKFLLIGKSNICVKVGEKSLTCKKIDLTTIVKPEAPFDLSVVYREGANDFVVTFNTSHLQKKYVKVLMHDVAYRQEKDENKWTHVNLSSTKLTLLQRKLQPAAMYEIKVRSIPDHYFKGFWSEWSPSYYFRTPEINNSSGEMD

T3: human IL-2Rα (Sino Biological) (human, UniProt P01589 22-213, limits assumed)
T3 construct: also called IL2RA; IL-2RA
T3 sequence: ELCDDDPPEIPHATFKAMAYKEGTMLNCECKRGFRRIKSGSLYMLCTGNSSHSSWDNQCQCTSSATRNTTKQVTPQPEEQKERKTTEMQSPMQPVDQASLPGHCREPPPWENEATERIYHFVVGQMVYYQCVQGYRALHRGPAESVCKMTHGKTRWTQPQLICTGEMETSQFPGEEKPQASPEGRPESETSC

T4: IL-9R (R&D Systems) (UniProt Q01113 41-270, limits assumed)
T4 sequence (looked up): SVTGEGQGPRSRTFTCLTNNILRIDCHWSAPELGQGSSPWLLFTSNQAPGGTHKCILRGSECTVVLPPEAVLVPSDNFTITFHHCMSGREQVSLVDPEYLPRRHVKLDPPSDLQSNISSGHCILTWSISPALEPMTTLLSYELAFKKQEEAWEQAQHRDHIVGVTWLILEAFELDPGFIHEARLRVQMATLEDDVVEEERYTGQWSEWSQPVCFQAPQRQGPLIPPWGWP

T5: human IL-2Rβγ receptor (IL-2RB / IL-2RG) on human T-cells (human, UniProt P14784 27-551; P31785 23-369)
T5 construct: also called IL2RB/IL2RG dimeric receptor complex
T5 sequence 1: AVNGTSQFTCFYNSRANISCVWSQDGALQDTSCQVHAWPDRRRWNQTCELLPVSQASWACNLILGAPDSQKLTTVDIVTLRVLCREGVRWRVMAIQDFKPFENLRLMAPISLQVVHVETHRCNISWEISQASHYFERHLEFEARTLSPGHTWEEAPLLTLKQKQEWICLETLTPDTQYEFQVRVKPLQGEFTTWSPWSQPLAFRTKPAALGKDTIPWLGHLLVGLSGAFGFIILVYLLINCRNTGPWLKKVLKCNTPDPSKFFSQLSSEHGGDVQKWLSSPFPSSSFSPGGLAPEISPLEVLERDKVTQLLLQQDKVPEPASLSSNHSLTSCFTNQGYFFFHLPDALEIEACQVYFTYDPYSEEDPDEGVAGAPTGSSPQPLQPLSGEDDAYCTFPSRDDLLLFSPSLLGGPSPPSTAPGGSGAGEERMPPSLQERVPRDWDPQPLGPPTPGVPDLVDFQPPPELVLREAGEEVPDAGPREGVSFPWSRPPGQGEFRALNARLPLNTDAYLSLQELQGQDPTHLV
T5 sequence 2: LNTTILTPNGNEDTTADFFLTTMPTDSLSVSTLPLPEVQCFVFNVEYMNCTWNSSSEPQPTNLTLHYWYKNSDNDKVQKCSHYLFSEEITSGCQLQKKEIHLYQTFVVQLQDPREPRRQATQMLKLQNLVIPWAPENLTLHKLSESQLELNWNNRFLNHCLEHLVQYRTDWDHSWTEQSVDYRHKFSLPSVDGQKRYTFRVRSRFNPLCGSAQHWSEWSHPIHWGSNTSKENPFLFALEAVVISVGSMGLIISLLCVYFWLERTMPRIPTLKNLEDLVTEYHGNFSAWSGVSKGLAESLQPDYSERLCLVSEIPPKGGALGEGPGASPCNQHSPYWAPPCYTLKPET

B1: IL2RB_F09G**IL2RG_F16B (bispecific antibody, human IgG4, V domains shown)
V domain 1: QVQLQESGPGLVKSSETLSLTCTVSGGSISSSDWWSWVRQPPGKGLEWIGEIDHSGSTNYNPSLMSRVTISVDKSKNQFSLKLSSVTAADTAVYFCARGSWELTDAFDIRGQGTLVTVSS
V domain 2: QVQLVESGGGLVKPGGSLRLSCAASGFTFSDYYMSWIRQAPGKGLEWVSYISSSGSTIYYADSVKGRFTISRDNAKNSLYLQMNSLRAEDTAVYYCARGDAVSITGDYRGQGTLVTVSS
notes: Bispecific heavy chain-only UniAb on silenced, stabilized human IgG4 Fc without CH1, knobs-into-holes; also called BsAb-2; not shown: C-terminal His-tag on the knob chain
B2: IL2RB_F18E**IL2RG_F16A (bispecific antibody, human IgG4, V domains shown)
V domain 1: QVQLVESGGGVVQPGRSLRLSCAASGFTFSSYGMHWVRQAPGKEREWVAVISYDGSNKYYTDSVKGRFTISRDNSKNTLYLEMNSLRAEDTAVYYCARDLDYDVLTGDPVGGFDIWGQGTLVTVSS
V domain 2: B1 V domain 2 with Y50S, S56D, K65Q, I70L, K76E, Y80F
notes: Bispecific heavy chain-only UniAb on silenced, stabilized human IgG4 Fc without CH1, knobs-into-holes; also called BsAb-6; not shown: C-terminal His-tag on the knob chain
B3: IL2RB_F09G**IL2RG_F18A (bispecific antibody, human IgG4, V domains shown)
V domain 1: B1 V domain 1
V domain 2: QVQLVESGGDLVKPGGSLRLSCAASGFTFSDYYMSWLRQAPGKELEWVSHISSSGTTTYYADSVEGRFTITRDNAKNSLYLQMNSLRAEDTAVYYCARGAAVAPGFDSRGQGTLVTVSS
notes: Bispecific heavy chain-only UniAb on silenced, stabilized human IgG4 Fc without CH1, knobs-into-holes; also called BsAb-4; not shown: C-terminal His-tag on the knob chain
B4: IL2RB_F09K**IL2RG_F16B (bispecific antibody, human IgG4, V domains shown)
V domain 1: B1 V domain 1 with G8S, S14P, D33N, D53S, M65K, K82R, A97G
V domain 2: B1 V domain 2
notes: Bispecific heavy chain-only UniAb on silenced, stabilized human IgG4 Fc without CH1, knobs-into-holes; also called BsAb-5; not shown: C-terminal His-tag on the knob chain
B5: IL2RB_F09C**IL2RG_F16A (bispecific antibody, human IgG4, V domains shown)
V domain 1: B1 V domain 1 with S14P, E16G, T23A, A97G, T104S
V domain 2: B1 V domain 2 with Y50S, S56D, K65Q, I70L, K76E, Y80F
notes: Bispecific heavy chain-only UniAb on silenced, stabilized human IgG4 Fc without CH1, knobs-into-holes; also called BsAb-1; not shown: C-terminal His-tag on the knob chain
B6: IL2RB_F09G**IL2RG_F16C (bispecific antibody, human IgG4, V domains shown)
V domain 1: B1 V domain 1
V domain 2: B1 V domain 2 with S30N, Y50H, I70V, K76N, N84H
notes: Bispecific heavy chain-only UniAb on silenced, stabilized human IgG4 Fc without CH1, knobs-into-holes; also called BsAb-3; not shown: C-terminal His-tag on the knob chain

Target: T1, IL-4R (Sino Biological)
Experiment: Octet BLI off-rate analysis, antibody on AHC sensors
Procedure: (§1) All off-rate measurements were performed on an Octet Qk384 instrument (ForteBio), in 96-well microplates at 25° C. using anti-human IgG Fc capture (AHC, 18-5005) sensors with a shake speed of 1000 rpm. For off-rate determination, the antibodies were loaded on the AHC sensors at 5 µg/mL. Following a short baseline in kinetics buffer (0.02% Tween20, 0.1% BSA, 0.05% sodium azide, 1X PBS). Offrate measurements were done for the following: human IL-2Rβ (AcroBiosystems), human IL- 2Ry (Sino Biological), cynomolgus IL-2Rβ (Sino Biological), cynomolgus IL-2Rγ (expressed and purified in house using ExpiCHO expression system followed by Ni-NTA His-tag purification), mouse IL-2Rγ (Sino Biological), mouse IL-2Rβ (Sino Biological), human IL-2Rα (Sino Biological), IL-4R (Sino Biological), IL-7R (Sino Biological), IL-9R (R&D Systems) and IL-21R (Sino Biological). The following antibodies were used as positive controls to verify target binding and reagent quality: anti-human IL-9R (R&D Systems), anti-human IL-21R (R&D Systems), anti-human IL-7R (R&D Systems) and anti-human IL-4Ra (R&D Systems). The loaded sensors were then submerged in wells containing antigen at 100 nM concentration for association step. Dissociation was monitored in kinetics buffer. The capture surfaces were regenerated for 60 s. ForteBio data analysis software was used to fit the data to a 1:1 binding model to extract an association rate and dissociation rate.

binding result | Binder
no binding (tested: 100 nM antigen) | B1
no binding (tested: 100 nM antigen) | B2
no binding (tested: 100 nM antigen) | B3
no binding (tested: 100 nM antigen) | B4
no binding (tested: 100 nM antigen) | B5
no binding (tested: 100 nM antigen) | B6

Target: T2, IL-7R (Sino Biological)
Experiment: as above
Procedure: as §1

binding result | Binder
no binding (tested: 100 nM antigen) | B1
no binding (tested: 100 nM antigen) | B2
no binding (tested: 100 nM antigen) | B3
no binding (tested: 100 nM antigen) | B4
no binding (tested: 100 nM antigen) | B5
no binding (tested: 100 nM antigen) | B6

Target: T3, human IL-2Rα (Sino Biological)
Experiment: as above
Procedure: as §1

binding result | Binder
no binding (tested: 100 nM antigen) | B1
no binding (tested: 100 nM antigen) | B2
no binding (tested: 100 nM antigen) | B3
no binding (tested: 100 nM antigen) | B4
no binding (tested: 100 nM antigen) | B5
no binding (tested: 100 nM antigen) | B6

Target: T4, IL-9R (R&D Systems)
Experiment: as above
Procedure: as §1

binding result | Binder
no binding (tested: 100 nM antigen) | B1
no binding (tested: 100 nM antigen) | B2
no binding (tested: 100 nM antigen) | B3
no binding (tested: 100 nM antigen) | B4
no binding (tested: 100 nM antigen) | B5
no binding (tested: 100 nM antigen) | B6

Target: IL-21R (Sino Biological) (UniProt Q9HBE5 20-232)
Experiment: as above
Procedure: as §1

Chain of IL-21R (Sino Biological) (Q9HBE5 20-232 limits assumed): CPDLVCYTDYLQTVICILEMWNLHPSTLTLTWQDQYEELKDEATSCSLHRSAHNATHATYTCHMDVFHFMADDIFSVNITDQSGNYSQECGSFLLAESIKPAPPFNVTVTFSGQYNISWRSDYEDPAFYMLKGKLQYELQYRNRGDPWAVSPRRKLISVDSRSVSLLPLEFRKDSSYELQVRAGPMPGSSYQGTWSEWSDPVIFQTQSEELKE

binding result | Binder
no binding (tested: 100 nM antigen) | B1
no binding (tested: 100 nM antigen) | B2
no binding (tested: 100 nM antigen) | B3
no binding (tested: 100 nM antigen) | B4
no binding (tested: 100 nM antigen) | B5
no binding (tested: 100 nM antigen) | B6

Target: cynomolgus IL-2Rβγ receptor (IL-2RB / IL-2RG) on cynomolgus T-cells (cynomolgus, UniProt Q38J85 27-551)
Experiment: flow cytometry, cynomolgus CD8+ T-cells, anti-human IgG-PE detection, gMFI as fold over secondary-only background
Procedure: (§2) All washes and dilutions of cells, antibodies, and reagents were performed using flow buffer (1X PBS, 1% BSA, 0.1% NaN3, pH 7.4). Staining was performed in a round-bottom 96-well plate (Corning) seeded at 100,000 cells/well and all incubations were performed at 4° C. or on ice. […] The cells were washed twice with 200 µL flow buffer. The cells were then incubated for 30 minutes with detection antibody (Goat F(ab′)2 Anti-Human IgG-PE, Southern Biotech) at 0.625 µg/mL in flow buffer. Following 2 more washes, the cells were resuspended in a final volume of 150 µL of flow buffer. The cells were analyzed on a BD FACSCelesta or a Guava easyCyte 8-HT flow cytometer. At least 3000 events were collected, and PE geometric mean fluorescence intensity was plotted as a fold over background (cells incubated with secondary detection antibody only). In some secondary screens involving human or cynomolgus PBMCs, an additional CD4 antibody (BioLegend) and/or CD8 antibody (BioLegend) was included to further characterize cell binding.

Chain of cynomolgus IL-2Rβγ receptor (IL-2RB / IL-2RG) on cynomolgus T-cells (Q38J85 27-551): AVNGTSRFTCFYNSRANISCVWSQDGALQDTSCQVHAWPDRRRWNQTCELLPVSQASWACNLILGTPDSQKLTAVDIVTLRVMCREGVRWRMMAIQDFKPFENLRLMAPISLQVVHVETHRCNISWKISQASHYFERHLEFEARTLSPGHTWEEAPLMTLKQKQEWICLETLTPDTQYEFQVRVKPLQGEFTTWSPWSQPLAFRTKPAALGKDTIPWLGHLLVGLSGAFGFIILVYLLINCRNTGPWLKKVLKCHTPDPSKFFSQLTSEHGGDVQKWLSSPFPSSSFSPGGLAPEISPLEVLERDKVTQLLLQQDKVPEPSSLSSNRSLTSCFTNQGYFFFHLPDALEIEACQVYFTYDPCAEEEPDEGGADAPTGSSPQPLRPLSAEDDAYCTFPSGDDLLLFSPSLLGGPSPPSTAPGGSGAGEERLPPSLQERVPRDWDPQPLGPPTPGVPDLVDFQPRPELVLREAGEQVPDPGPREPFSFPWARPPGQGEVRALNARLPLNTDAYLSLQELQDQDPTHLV

EC50 (read off the curve) | Binder
~5 nM | B4

Target: T5, human IL-2Rβγ receptor (IL-2RB / …)
Experiment: flow cytometry, human CD4+ T-cells, anti-human IgG-PE detection, gMFI as fold over secondary-only background
Procedure: as §2

EC50 (read off the curve) | Binder
~5 nM | B1
~5 nM | B5
~6 nM | B6

Target: T5, human IL-2Rβγ receptor (IL-2RB / …)
Experiment: flow cytometry, human CD8+ T-cells, anti-human IgG-PE detection, gMFI as fold over secondary-only background
Procedure: as §2

EC50 (read off the curve) | Binder
~6 nM | B6

Reference: patent US20230242653A1 (TENEOBIO, published 2023)
